Reference: article PMC3973307 (Nucleic Acids Research, 2014)

Columns and labels:
[1] = molecular target: mouse Δ320-Polrmt (N-terminal truncation mutant lacking the amino-terminal 320 amino acids) (mouse, UniProt Q8BKF1 321-1207); assay: MST
[2] = molecular target: mouse mitochondrial RNA polymerase (Polrmt), wild type (mouse, UniProt Q8BKF1 42-1207); assay: MST
Chain of mouse mitochondrial RNA polymerase (Polrmt), wild type (Q8BKF1 42-1207): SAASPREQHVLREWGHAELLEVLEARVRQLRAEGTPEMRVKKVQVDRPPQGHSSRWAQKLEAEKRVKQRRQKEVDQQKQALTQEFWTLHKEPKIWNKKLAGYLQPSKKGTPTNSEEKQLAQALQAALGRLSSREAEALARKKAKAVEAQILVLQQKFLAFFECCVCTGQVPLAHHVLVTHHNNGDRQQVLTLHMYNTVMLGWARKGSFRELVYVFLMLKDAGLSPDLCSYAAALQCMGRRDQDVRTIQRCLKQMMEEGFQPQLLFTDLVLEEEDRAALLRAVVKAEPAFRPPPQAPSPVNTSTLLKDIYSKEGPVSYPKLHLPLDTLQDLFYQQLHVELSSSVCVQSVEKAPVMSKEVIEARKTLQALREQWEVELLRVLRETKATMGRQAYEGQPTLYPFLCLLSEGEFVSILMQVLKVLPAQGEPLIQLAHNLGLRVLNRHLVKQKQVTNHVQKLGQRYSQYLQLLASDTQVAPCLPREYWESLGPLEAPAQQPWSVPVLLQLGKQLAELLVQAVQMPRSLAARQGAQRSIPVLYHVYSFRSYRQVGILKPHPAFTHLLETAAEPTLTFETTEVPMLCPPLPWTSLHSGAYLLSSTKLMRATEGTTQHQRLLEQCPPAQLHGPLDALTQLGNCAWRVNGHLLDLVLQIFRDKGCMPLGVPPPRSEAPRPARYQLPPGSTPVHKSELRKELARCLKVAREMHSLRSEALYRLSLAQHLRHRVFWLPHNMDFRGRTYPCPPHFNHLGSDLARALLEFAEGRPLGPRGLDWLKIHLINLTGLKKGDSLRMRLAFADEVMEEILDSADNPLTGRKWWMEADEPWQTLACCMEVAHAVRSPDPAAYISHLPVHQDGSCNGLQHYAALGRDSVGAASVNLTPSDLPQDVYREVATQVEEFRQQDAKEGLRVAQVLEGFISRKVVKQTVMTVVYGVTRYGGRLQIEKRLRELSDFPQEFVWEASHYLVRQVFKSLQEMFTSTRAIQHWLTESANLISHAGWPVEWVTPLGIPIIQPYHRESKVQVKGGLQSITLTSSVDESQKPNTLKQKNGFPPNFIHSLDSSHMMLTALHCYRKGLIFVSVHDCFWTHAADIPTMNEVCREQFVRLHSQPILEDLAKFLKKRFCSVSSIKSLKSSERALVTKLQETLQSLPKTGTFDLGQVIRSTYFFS

Chain of mouse Δ320-Polrmt (N-terminal truncation mutant lacking the amino-terminal 320 amino acids) (Q8BKF1 321-1207, stated change not applied): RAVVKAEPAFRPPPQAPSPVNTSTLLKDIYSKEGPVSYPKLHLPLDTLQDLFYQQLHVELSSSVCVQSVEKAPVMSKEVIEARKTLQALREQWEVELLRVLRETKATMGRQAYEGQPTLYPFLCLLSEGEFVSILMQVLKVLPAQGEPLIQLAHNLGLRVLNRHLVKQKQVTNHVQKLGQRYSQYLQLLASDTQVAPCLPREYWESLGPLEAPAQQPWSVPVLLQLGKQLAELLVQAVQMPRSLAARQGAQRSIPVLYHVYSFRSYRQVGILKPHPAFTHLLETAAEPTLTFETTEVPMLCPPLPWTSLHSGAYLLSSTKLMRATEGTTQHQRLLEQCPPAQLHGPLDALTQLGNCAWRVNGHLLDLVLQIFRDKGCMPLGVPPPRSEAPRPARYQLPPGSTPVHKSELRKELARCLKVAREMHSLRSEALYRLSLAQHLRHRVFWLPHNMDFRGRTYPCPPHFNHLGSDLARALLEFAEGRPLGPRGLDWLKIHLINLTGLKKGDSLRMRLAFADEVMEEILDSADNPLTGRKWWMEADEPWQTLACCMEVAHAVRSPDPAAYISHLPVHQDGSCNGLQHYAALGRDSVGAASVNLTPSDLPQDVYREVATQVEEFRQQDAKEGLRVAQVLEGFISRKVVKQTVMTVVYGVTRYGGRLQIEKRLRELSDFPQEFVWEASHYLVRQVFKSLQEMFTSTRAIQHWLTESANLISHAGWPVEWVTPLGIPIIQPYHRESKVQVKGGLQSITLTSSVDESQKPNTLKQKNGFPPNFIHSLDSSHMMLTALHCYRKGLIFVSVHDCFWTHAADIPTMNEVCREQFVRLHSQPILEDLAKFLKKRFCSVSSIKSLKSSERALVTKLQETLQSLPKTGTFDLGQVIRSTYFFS

B1: mouse mitochondrial transcription factor B2 (Tfb2m) (natural protein, UniProt Q3TL26 44-396, looked up)
chain: SDFNIEPLPDSDLEESSPWTSRNRSEPTRHIACKKAARNLVRDLLEHQNPSRQIILECNPGPGILTGALLKAGARVVAFESEKTFIPHLEPLQRNMDGELQVVHCDFFKMDPRYQEVVRPDVSSQAIFQNLGIKAVPWSAGVPIKVFGILPYKHERRILWKILFDLYSCESIYRYGRVELNMFVSEKEFRKLIATPKRPDLYQVMAVLWQVACDVKFLHMEPWSSFSVHTENGHLEKSKHGESVNLLKQNLYLVRMTPRRTLFTENLSPLNYDIFFHLVKHCFGKRNAPIIRHLRSLSTVDPINILRQIRKNPGDTAARMYPHDFKKLFETIEQSEDSVFKWIYDYCPEDMEF
modifications: amine-labelled with NT-647 dye
Kd [1]: 49.4 ± 1.1 nM
Kd [2]: 105 ± 1.2 nM
